Measured values reported in patent US20240279281A1, “Peptide Inhibitors of Interleukin-23 Receptor” (Janssen Pharmaceutica NV, priority 2023, published 2024).
Each block holds one binder with its values, some of them ahead of it. Starred links: 1 amine or outer side, 2 acyl side, 3 side chain; linkers in the order of their positions; H or OH if unused. Positions of bridges follow the written chain, without caps; N, C: chain ends. Non-standard residues stand in square brackets, D forms with d. No end group written: not given here. N‑methyl‑N‑acetyllysine = N-methyl-N-acetyllysine; Phe(4-OMe) = COc1ccc(C[C@H](N[*:1])C(=O)[*:2])cc1; Trp(7-Br) = N[C@@H](Cc1c[nH]c2c(Br)cccc12)C(=O)O; 2Nal(6-OH) = N[C@@H](Cc1ccc2cc(O)ccc2c1)C(=O)O; Trp(7-Me) = Cc1cccc2c(C[C@H](N)C(=O)O)c[nH]c12; AEF = NCCOc1ccc(C[C@H](N)C(=O)O)cc1; 3Pal = N[C@@H](Cc1cccnc1)C(=O)O; Aad = N[C@@H](CCCC(=O)O)C(=O)O; NMeK = CN[C@@H](CCCCN)C(=O)O; Pen = CC(C)(S)[C@H](N)C(=O)O; αMeK = C[C@](N)(CCCCN)C(=O)O; αMeC = C[C@](N)(CS)C(=O)O; lipid = not defined here; Thp = NC1(C(=O)O)CCOCC1; PEG = not defined here; Sar = CNCC(=O)O

Biological target: T1, interleukin-23 receptor (IL-23R), Q5VWK5
T1 chain: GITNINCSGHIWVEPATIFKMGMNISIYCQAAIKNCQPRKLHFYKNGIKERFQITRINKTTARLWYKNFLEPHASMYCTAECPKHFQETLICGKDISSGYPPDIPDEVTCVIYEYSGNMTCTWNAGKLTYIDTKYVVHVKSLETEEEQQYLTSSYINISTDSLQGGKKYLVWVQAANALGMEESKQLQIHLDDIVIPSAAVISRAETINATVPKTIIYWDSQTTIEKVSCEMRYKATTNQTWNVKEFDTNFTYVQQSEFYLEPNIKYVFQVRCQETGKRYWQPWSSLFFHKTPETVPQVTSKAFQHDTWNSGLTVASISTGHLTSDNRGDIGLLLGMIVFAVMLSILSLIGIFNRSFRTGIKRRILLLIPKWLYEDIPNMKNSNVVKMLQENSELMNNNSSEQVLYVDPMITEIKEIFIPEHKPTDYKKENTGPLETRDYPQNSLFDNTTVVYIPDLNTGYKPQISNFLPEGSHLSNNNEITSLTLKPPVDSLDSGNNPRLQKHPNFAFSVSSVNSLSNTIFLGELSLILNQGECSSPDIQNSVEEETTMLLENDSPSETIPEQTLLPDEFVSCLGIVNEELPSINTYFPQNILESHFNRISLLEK
Assay: cell-based or functional assay

IL23R Reporter Assay IC50: < 10 nM | PBMC pSTAT3 IC50: < 0.1 nM
Binder: [Pen]NT[Trp(7-Me)]K(Ac)[Pen][AEF][2Nal(6-OH)][Thp]EN[3Pal][Sar] (not fully specified (bridges); ends and bridges not checked) [SEQ ID NO: 347]

IL23R Reporter Assay IC50: < 10 nM
Binder: [Pen]NT[Trp(7-Me)]K(Ac)[Pen][2‑amino‑3‑(4-(2-aminoethoxy)phenyl)propanoic acid][2‑amino‑3‑(6-hydroxynaphthalen-2-yl)propanoic acid][Thp]EN[3Pal][Sar] (not fully specified (bridges); ends and bridges not checked) [SEQ ID NO: 379]

IL23R Reporter Assay IC50: < 10 nM
Binder: [Pen]NT[2‑amino‑3‑(benzo(b)thiophen-3-yl)propanoic acid]K(Ac)[Pen][AEF][2Nal(6-OH)][Thp]EN[3Pal][Sar] (not fully specified (bridges); ends and bridges not checked) [SEQ ID NO: 334]

IL23R Reporter Assay IC50: < 10 nM | PBMC pSTAT3 IC50: < 10 pM
Binder: [Pen]NT[Trp(7-Me)]K(Ac)[Pen][2‑amino‑3‑(4-(2-aminoethoxy)phenyl)propanoic acid][2‑amino‑3‑(6-hydroxynaphthalen-2-yl)propanoic acid][Thp]EN[3Pal][Sar] (not fully specified (bridges); ends and bridges not checked) [SEQ ID NO: 378]

IL23R Reporter Assay IC50: < 10 nM | PBMC pSTAT3 IC50: < 10 pM
Binder: [Pen]ET[Trp(7-Me)]K(Ac)[Pen][2‑amino‑3‑(4-(2-aminoethoxy)phenyl)propanoic acid][2‑amino‑3‑(6-hydroxynaphthalen-2-yl)propanoic acid][Thp]EN[3Pal][Sar] (not fully specified (bridges); ends and bridges not checked) [SEQ ID NO: 372]

IL23R Reporter Assay IC50: < 10 nM
Binder: [Pen]ET[Trp(7-Me)]K(Ac)[Pen][AEF][2Nal(6-OH)][Thp]EN[3Pal][Sar] (not fully specified (bridges); ends and bridges not checked) [SEQ ID NO: 331]

IL23R Reporter Assay IC50: < 10 nM | PBMC pSTAT3 IC50: < 10 pM
Binder: [(R)‑3‑carboxy‑2‑(4-(((R)-5-carboxy-5-hydrazineylpentyl)amino)-4-oxobutanamido)‑N,N,N‑trimethylpropan‑1‑aminium][Pen]NT[Trp(7-Me)]K(Ac)[Pen][AEF][2Nal(6-OH)][Thp]EN[3Pal][Sar] (not fully specified (bridges); ends and bridges not checked) [SEQ ID NO: 340]

IL23R Reporter Assay IC50: < 10 nM
Binder: K[Pen]NT[Trp(7-Me)]K[Pen][AEF][2Nal(6-OH)][Thp][Aad]N[3Pal][Sar] (not fully specified (residue 6, bridges); ends and bridges not checked) [SEQ ID NO: 348]

IL23R Reporter Assay IC50: < 10 nM
B3: SEQ ID NO: 326 (peptide)
peptide: [Pen]ET[Trp(7-Me)]K(PEG)[Pen][AEF][2Nal(6-OH)][Thp]EN[3Pal][Sar]
modifications: not fully specified (bridges); ends and bridges not checked; also: PEG chain on Lys unspecified

IL23R Reporter Assay IC50: < 10 nM
Binder: [Pen]NT[Trp(7-Me)]K(Ac)[Pen][2‑amino‑3‑(4-(2-aminoethoxy)phenyl)propanoic acid][2‑amino‑3‑(6-hydroxynaphthalen-2-yl)propanoic acid][Thp]EN[3Pal][Sar] (not fully specified (bridges); ends and bridges not checked) [SEQ ID NO: 380]

Second part, the binder before the results:

B1: SEQ ID NO: 303 (peptide)
peptide: [Pen]LT[Trp(7-Me)]K(lipid)[Pen]F[2Nal(6-OH)][αMeK]LN[3Pal][Sar]
modifications: disulfide 1-6 (inferred); ends not checked; also: Lys5 lipidated, lipid not given here
IL23R Reporter Assay IC50: < 10 nM

Binder: CNT[Trp(7-Me)]K(Ac)[αMeC][2‑amino‑3‑(4-(2-aminoethoxy)phenyl)propanoic acid][2‑amino‑3‑(6-hydroxynaphthalen-2-yl)propanoic acid][Thp]K(Ac)N[3Pal][Sar] (ends and bridges not checked) [SEQ ID NO: 5]
IL23R Reporter Assay IC50: < 10 nM | PBMC pSTAT3 IC50: < 10 pM

Binder: [Pen]NT[Trp(7-Me)]K(Ac)[Pen][Phe(4-OMe)][2Nal(6-OH)][αMeK]LN[3Pal][Sar] (not fully specified (bridges); ends and bridges not checked) [SEQ ID NO: 306]
IL23R Reporter Assay IC50: < 10 nM

Binder: [Pen]NT[Trp(7-Me)]K(Ac)[Pen][2‑amino‑3‑(4-(2-aminoethoxy)phenyl)propanoic acid][2‑amino‑3‑(6-hydroxynaphthalen-2-yl)propanoic acid][Thp]K(Ac)N[3Pal][Sar]K(lipid) (disulfide 1-6 (inferred); ends not checked; also: K14: lipidated lysine) [SEQ ID NO: 278]
IL23R Reporter Assay IC50: > 100 nM | PBMC pSTAT3 IC50: < 1 nM

Binder: [Pen]K(lipid)T[Trp(7-Me)]K(Ac)[Pen][2‑amino‑3‑(4-(2-aminoethoxy)phenyl)propanoic acid][2‑amino‑3‑(6-hydroxynaphthalen-2-yl)propanoic acid][Thp]EN[3Pal][Sar] (disulfide 1-6 (inferred); ends not checked; also: K2: lipidated lysine) [SEQ ID NO: 276]
IL23R Reporter Assay IC50: > 100 nM | PBMC pSTAT3 IC50: < 1 nM

Binder: [Pen]NT[Trp(7-Br)]K(Ac)[Pen][AEF][2Nal(6-OH)][Thp]EN[3Pal][Sar] (not fully specified (bridges); ends and bridges not checked) [SEQ ID NO: 313]
IL23R Reporter Assay IC50: < 10 nM

Binder: R[Pen]NT[Trp(7-Me)]K(Ac)[Pen][AEF][2Nal(6-OH)][Thp]EN[3Pal][NMeK](lipid) (disulfide 2-7 (inferred); not fully specified; ends not checked) [SEQ ID NO: 279]
IL23R Reporter Assay IC50: > 100 nM | PBMC pSTAT3 IC50: < 1 nM

Binder: R[Pen]NT[Trp(7-Br)]K(Ac)[Pen][AEF][2Nal(6-OH)][Thp]EN[3Pal][Sar] (not fully specified (bridges); ends and bridges not checked) [SEQ ID NO: 312]
IL23R Reporter Assay IC50: < 10 nM

Binder: [N‑amino‑O‑(2-(2-(methylamino)ethoxy)ethyl)‑D‑serine][Pen]NT[Trp(7-Me)][N‑methyl‑N‑acetyllysine][Pen][AEF][2Nal(6-OH)][Thp]DN[3Pal][Sar] (disulfide 2-7 (inferred); ends not checked) [SEQ ID NO: 290]
IL23R Reporter Assay IC50: < 10 nM | PBMC pSTAT3 IC50: < 0.1 nM

Binder: [Pen]NT[Trp(7-Me)]K(Ac)[Pen][Phe(4-OMe)][2Nal(6-OH)][αMeK]LN[3Pal][Sar] (not fully specified (bridges); ends and bridges not checked) [SEQ ID NO: 308]
IL23R Reporter Assay IC50: < 10 nM

Binder: RCNT[Trp(7-Me)]K(Ac)[αMeC][AEF][2Nal(6-OH)][Thp]EN[3Pal][Sar] (ends and bridges not checked) [SEQ ID NO: 4]
IL23R Reporter Assay IC50: < 10 nM

B2: SEQ ID NO: 305 (peptide)
peptide: [Pen]NT[Trp(7-Me)]K(lipid)[Pen]F[2Nal(6-OH)][αMeK]LN[3Pal][Sar]
modifications: not fully specified (bridges); ends and bridges not checked; also: lipid group unspecified
IL23R Reporter Assay IC50: < 10 nM

B4: SEQ ID NO: 307 (peptide)
peptide: [Pen]NT[Trp(7-Me)]K(lipid)[Pen][Phe(4-OMe)][2Nal(6-OH)][αMeK]LN[3Pal][Sar]
modifications: not fully specified (bridges); ends and bridges not checked; also: lipid group unspecified
IL23R Reporter Assay IC50: < 10 nM

Binder: [Pen]LT[Trp(7-Me)]K(Ac)[Pen]F[2Nal(6-OH)][αMeK]LN[3Pal][Sar] (disulfide 1-6 (inferred); ends not checked) [SEQ ID NO: 304]
IL23R Reporter Assay IC50: < 10 nM
